Reference: patent US9732120B2, “Self-assembled peptide nanostructures by exploiting conformational change, biosensor using the same and detection method of biomolecules using the same” (INDUSTRY-ACADEMIC COOPERATION FOUNDATION, YONSEI UNIVERSITY, priority 2014, dated 2017)
No end group written: not given here. *: point of attachment. Butanoyl(4-pyren-1-yl) = O=C(CCCc1ccc2ccc3cccc4ccc1c2c34)*

Legend:
Assay type in all cases: physicochemical
[1] = Fluorescence spectroscopy of the amphiphilic peptide in water or 150 mM KF (pyrene excimer); details: 0.25-20 μM peptide
Procedure: The amphiphilic peptide prepared in Preparation Example was subjected to fluorescence spectroscopic measurement after dissolving in water or a 150 mM KF solution. Details are as follows.
Fluorescence spectra were measured using the LS55 fluorescence spectrometer (PerkinElmer). Pyrene was excited at 341 nm and the emission spectra were recorded in the range of 360-550 nm. The solid (-) curve indicates the amphiphilic peptide dissolved in 150 mM KF and the dotted ( . . . ) curve indicates the amphiphilic peptide dissolved in water.
Also, emission spectra were measured after dissolving 0.25-20 μM of the amphiphilic peptide prepared in Preparation Example in water (a) or a KF solution (b).

[2] = Atomic force microscopy (AFM) of the amphiphilic peptide
Procedure: The amphiphilic peptide prepared in Preparation Example was subjected to atomic force microscopic (AFM) measurement. Atomic force microscopic scanning was made at 1.2-1.5 V with 0.5 Hz. The result is shown in FIGS. 15a-15b and FIGS. 16a-16b.
FIGS. 15a and 15b show atomic force microscopic (AFM) images of 2.5 μM of the amphiphilic peptide dissolved in water. FIG. 15a is a height image and FIG. 15b is a phase image.
FIGS. 16a and 16b show atomic force microscopic (AFM) images of 1 μM of the amphiphilic peptide dissolved in a 150 mM KF solution. FIG. 16a is a height image and FIG. 16b is a phase image.

[3] = Circular dichroism (CD) spectroscopy of the amphiphilic peptide depending on ionic strength and pH; details: for [θ]222/[θ]208 (degree of α-helix stabilization): 4° C., 1 μM peptide
Procedure: Circular dichroism (CD) spectroscopic analysis was performed as follows in order to investigate the dependence of the conformation of the amphiphilic peptide prepared in Preparation Example on ionic strength.
CD spectra were recorded using the Chirascan circular dichroism spectrometer equipped with a Peltier thermostat. The spectra were recorded between 260 nm and 190 nm using a 2-mm path cuvette. 10 scans were averaged. Also, molar ellipticity per amino acid residue was calculated. The peptide concentration was 1 μM unless specified otherwise and the sample solution incubated at least for a day before the measurement.
In the graph, ∘ indicates the peptide dissolved in water, and • indicates the peptide dissolved in 150 mM KF. In Test Example 1, the measurement of the samples was measured at 4° C.

amphiphilic peptide prepared in Preparation Example: hairpin-shaped amphiphilic peptide derived from HIV-1 rev protein (Rev12-64) with a pyrene group bound to the N-terminal via pyrenebutyric acid ({Butanoyl(4-pyren-1-yl)}-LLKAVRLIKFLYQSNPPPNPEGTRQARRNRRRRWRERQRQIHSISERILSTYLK)
excimer peak of pyrene (self-assembly) ([1]; dissolved in pure water): no excimer peak of pyrene was observed | excimer peak of pyrene (self-assembly) ([1]; ionic strength 150 mM (KF)): the excimer peak of pyrene was observed | particle diameter of globular nanostructures ([2]; 1 μM peptide in 150 mM KF, AFM): 20-50 nm | state of the peptide by AFM ([2]; 2.5 μM peptide in water): exists mostly in monomer form | [θ]222/[θ]208 (degree of α-helix stabilization) ([3]; 150 mM KF (increased ionic strength)): 0.71 | solubility depending on pH ([3]; CD analysis, FIG. 12): solubility decreases gradually as the pH increases | [θ]222/[θ]208 (degree of α-helix stabilization) ([3]; in water): 0.31
